Test [1] addresses geranylgeranylated RAC1 (RAC1^GG) (human) (UniProt P63000). Nature of the test: stopped-flow fluorimetry; kon from kobs against increasing GDI concentrations mixed with 0.2 µM mdGDP-bound RHO GTPase; koff by displacement with excess unlabeled GDP-bound RHO protein; Kd = koff/kon; 25 °C, 30 mM Tris/HCl pH 7.5, 10 mM K2HPO4/KH2PO4 pH 7.5, 5 mM MgCl2, 3 mM DTT.
For test [2], the target named is RAC1, RAC3, RHOG and RHOA. The description is as above.
Test [3] addresses geranylgeranylated RAC1 (RAC1^GG) (human) (UniProt P63000). Nature of the test: not stated.
Test [4] deals with RAC1^ΔC10 (C-terminal truncated variant lacking HVR-CAAX) (human) (UniProt P63000). Nature of the test: fluorescence polarisation; increasing GDI1 (variants) titrated to 0.2 µM mdGDP-bound RHO protein, 200 µL; 25 °C, 30 mM Tris/HCl pH 7.5, 10 mM K2HPO4/KH2PO4 pH 7.5, 5 mM MgCl2, 3 mM DTT; quadratic binding equation.
The target of the next test is RHOA (Homo sapiens) (UniProt P61586). The conditions noted are these: cited from earlier work.
Another test addresses RAC1 (Homo sapiens) (UniProt P63000). The conditions noted are these: cited from earlier work.
The target of a further test is CDC42 (Homo sapiens) (UniProt P60953). The conditions noted are these: cited from earlier work.
Test [5] has as its target non-isoprenylated RAC1 full-length (RAC1^FL) (human) (UniProt P63000). Nature of the test: stopped-flow fluorimetry; kon from kobs against increasing GDI concentrations mixed with 0.2 µM mdGDP-bound RHO GTPase; koff by displacement with excess unlabeled GDP-bound RHO protein; Kd = koff/kon; 25 °C, 30 mM Tris/HCl pH 7.5, 10 mM K2HPO4/KH2PO4 pH 7.5, 5 mM MgCl2, 3 mM DTT.
Test [6] has the same target. Nature of the test: fluorescence polarisation; increasing GDI1 (variants) titrated to 0.2 µM mdGDP-bound RHO protein, 200 µL; 25 °C, 30 mM Tris/HCl pH 7.5, 10 mM K2HPO4/KH2PO4 pH 7.5, 5 mM MgCl2, 3 mM DTT; quadratic binding equation.
Test [7] concerns the target geranylgeranylated RAC1 (RAC1^GG) (human) (UniProt P63000). Nature of the test: stopped-flow fluorimetry; association (kobs) at one concentration: 2 µM GDI mixed with 0.2 µM mdGDP-bound RHO GTPase; 25 °C, 30 mM Tris/HCl pH 7.5, 10 mM K2HPO4/KH2PO4 pH 7.5, 5 mM MgCl2, 3 mM DTT.
The target in test [8] is non-isoprenylated RAC1 full-length (RAC1^FL) (human) (UniProt P63000). The test is described as above.

These results are taken from publication PMC8622166.

CDC42 (Homo sapiens), sequence (P60953 1-188): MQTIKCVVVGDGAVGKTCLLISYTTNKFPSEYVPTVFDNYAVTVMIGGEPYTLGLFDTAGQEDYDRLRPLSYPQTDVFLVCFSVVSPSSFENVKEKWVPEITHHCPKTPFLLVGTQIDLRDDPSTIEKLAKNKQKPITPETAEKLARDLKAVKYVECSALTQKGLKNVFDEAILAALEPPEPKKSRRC
RHOA (Homo sapiens), sequence (P61586 1-190): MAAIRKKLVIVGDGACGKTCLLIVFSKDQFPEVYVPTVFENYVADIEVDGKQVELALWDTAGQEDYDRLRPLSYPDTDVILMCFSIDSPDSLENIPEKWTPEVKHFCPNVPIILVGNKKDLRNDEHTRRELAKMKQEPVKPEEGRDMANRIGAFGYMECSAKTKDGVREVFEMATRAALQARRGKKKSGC

In the case of “GDI1 (RHOGDI1), wild type (from UniProt P52565 1-204) (natural protein)”, in test [1], the fold difference of koff between RAC1^GG and RAC1^FL was 3 fold; the fold higher affinity than for RAC1^FL (Kd from koff/kon) worked out at 7 fold. The Kd in test [2] is 900 to 3200 nM. In [3], this substance returned a Kd of 180 nM and a fold lower Kd than for RAC1^FL of 2.5 to 4.6 fold. The same substance displayed a fold lower affinity than for RAC1 in test [4] of 26 fold.

GDI1 (from UniProt P52565): the results for the Kd with RHOA (Homo sapiens), with RAC1 (Homo sapiens) and with CDC42 (Homo sapiens) were 0.005 nM, 0.4 nM and 1.6 nM, respectively.

“GDI1^ΔC6 (from UniProt P52565 1-198) (domain or fragment)”: the fold difference in kon against GDI1 wt in [5] was greater than 100 fold. In test [6], this substance returned a fold change of Kd against GDI1^WT of 140 fold. Further, the fold slower association rate than GDI1^WT in test [7] and in test [8] was less than 24 fold in each case.

As to “GDI1^ΔN15 (from UniProt P52565 16-204) (domain or fragment)”, the fold difference in kon against GDI1 wt in test [5] is greater than 100 fold. Besides, the fold change of Kd against GDI1^WT in test [6] amounted to 440 fold. In addition, the fold slower association rate than GDI1^WT in test [7] and in test [8] was less than 24 fold in each case.
